Measured values published in paper PMC7672075.
Where no end group is shown, it is not given here. [ ]: non-standard residue; d: D form. pS = N[C@@H](COP(=O)(O)O)C(=O)O

Target: TRF2, endogenous (U2OS) (human (endogenous in U2OS)) (UniProt Q15554)
Experiment: not given

Chain of UniProt Q15554 (Q15554 whole entry): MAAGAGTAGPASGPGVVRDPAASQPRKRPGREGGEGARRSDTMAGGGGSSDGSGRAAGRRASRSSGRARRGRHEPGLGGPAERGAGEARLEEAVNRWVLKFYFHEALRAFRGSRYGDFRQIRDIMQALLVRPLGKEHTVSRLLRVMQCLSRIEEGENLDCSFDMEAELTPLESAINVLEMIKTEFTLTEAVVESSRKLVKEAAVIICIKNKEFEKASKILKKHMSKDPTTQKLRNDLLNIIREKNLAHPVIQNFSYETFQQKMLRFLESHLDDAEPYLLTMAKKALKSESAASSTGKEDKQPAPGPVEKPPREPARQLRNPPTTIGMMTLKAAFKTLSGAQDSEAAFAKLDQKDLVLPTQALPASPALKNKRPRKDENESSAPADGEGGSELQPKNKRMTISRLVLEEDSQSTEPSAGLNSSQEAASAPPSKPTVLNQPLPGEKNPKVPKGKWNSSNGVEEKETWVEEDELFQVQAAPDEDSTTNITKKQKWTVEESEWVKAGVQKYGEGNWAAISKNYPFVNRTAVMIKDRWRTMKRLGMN

| percentage of HeLa cells with >5 FLAG-MCPH1 foci at telomeres (immunostaining and telomere PNA-FISH), functional telomeres | Binder |
| --- | --- |
| 11 % of cells | FLAG-tagged WT MCPH1 (human) (natural protein) MAAPILKDVVAYVEVWSSNGTENYSKTFTTQLVDMGAKVSKTFNKQVTHVIFKDGYQSTWDKAQKRGVKLVSVLWVEKCRTAGAHIDESLFPAANMNEHLSSLIKKKRKCMQPKDFNFKTPENDKRFQKKFEKMAKELQRQKTNLDDDVPILLFESNGSLIYTPTIEINSRHHSAMEKRLQEMKEKRENLSPTSSQMIQQSHDNPSNSLCEAPLNISRDTLCSDEYFAGGLHSSFDDLCGNSGCGNQERKLEGSINDIKSDVCISSLVLKANNIHSSPSFTHLDKSSPQKFLSNLSKEEINLQRNIAGKVVTPDQKQAAGMSQETFEEKYRLSPTLSSTKGHLLIHSRPRSSSVKRKRVSHGSHSPPKEKCKRKRSTRRSIMPRLQLCRSEDRLQHVAGPALEALSCGESSYDDYFSPDNLKERYSENLPPESQLPSSPAQLSCRSLSKKERTSIFEMSDFSCVGKKTRTVDITNFTAKTISSPRKTGNGEGRATSSCVTSAPEEALRCCRQAGKEDACPEGNGFSYTIEDPALPKGHDDDLTPLEGSLEEMKEAVGLKSTQNKGTTSKISNSSEGEAQSEHEPCFIVDCNMETSTEEKENLPGGYSGSVKNRPTRHDVLDDSCDGFKDLIKPHEELKKSGRGKKPTRTLVMTSMPSEKQNVVIQVVDKLKGFSIAPDVCETTTHVLSGKPLRTLNVLLGIARGCWVLSYDWVLWSLELGHWISEEPFELSHHFPAAPLCRSECHLSAGPYRGTLFADQPAMFVSPASSPPVAKLCELVHLCGGRVSQVPRQASIVIGPYSGKKKATVKYLSEKWVLDSITQHKVCAPENYLLSQ |
| 48 % of cells | FLAG-MCPH1^S333A (natural protein) MAAPILKDVVAYVEVWSSNGTENYSKTFTTQLVDMGAKVSKTFNKQVTHVIFKDGYQSTWDKAQKRGVKLVSVLWVEKCRTAGAHIDESLFPAANMNEHLSSLIKKKRKCMQPKDFNFKTPENDKRFQKKFEKMAKELQRQKTNLDDDVPILLFESNGSLIYTPTIEINSRHHSAMEKRLQEMKEKRENLSPTSSQMIQQSHDNPSNSLCEAPLNISRDTLCSDEYFAGGLHSSFDDLCGNSGCGNQERKLEGSINDIKSDVCISSLVLKANNIHSSPSFTHLDKSSPQKFLSNLSKEEINLQRNIAGKVVTPDQKQAAGMSQETFEEKYRLAPTLSSTKGHLLIHSRPRSSSVKRKRVSHGSHSPPKEKCKRKRSTRRSIMPRLQLCRSEDRLQHVAGPALEALSCGESSYDDYFSPDNLKERYSENLPPESQLPSSPAQLSCRSLSKKERTSIFEMSDFSCVGKKTRTVDITNFTAKTISSPRKTGNGEGRATSSCVTSAPEEALRCCRQAGKEDACPEGNGFSYTIEDPALPKGHDDDLTPLEGSLEEMKEAVGLKSTQNKGTTSKISNSSEGEAQSEHEPCFIVDCNMETSTEEKENLPGGYSGSVKNRPTRHDVLDDSCDGFKDLIKPHEELKKSGRGKKPTRTLVMTSMPSEKQNVVIQVVDKLKGFSIAPDVCETTTHVLSGKPLRTLNVLLGIARGCWVLSYDWVLWSLELGHWISEEPFELSHHFPAAPLCRSECHLSAGPYRGTLFADQPAMFVSPASSPPVAKLCELVHLCGGRVSQVPRQASIVIGPYSGKKKATVKYLSEKWVLDSITQHKVCAPENYLLSQ |

Target: TRF2^TRFH (TRF Homology domain of human TRF2, residues 42–245) (human)
Experiment: ITC; MCPH1^TBM peptides at 1.0 mM in the syringe titrated into TRF2^TRFH at 0.1 mM in the sample cell; 20 °C; 25 mM Tris-HCl pH 8.0, 150 mM NaCl

| Binder | Kd [µM] |
| --- | --- |
| SQETFEEKYRLSATLSSTKGH [MCPH1^TBM peptide P334A, synthetic] | 24 |
| SQETFEEKYRL[pS]PTLSSTKGH (also: phosphoserine at S333, position in peptide not given here) [MCPH1^TBM peptide phosphorylated at S333, synthetic] | 79 |
| SQETFEEKYRLDPTLSSTKGH [MCPH1^TBM peptide S333D, synthetic] | 21 |

The next lines start with the values.

| Kd [µM] | Binder |
| --- | --- |
| 0.24 | SQETFEEKYRLSPTLSSTKGH [MCPH1^TBM peptide, wild type, synthetic] |
| 14 | SQETFEEKYRLEPTLSSTKGH [MCPH1^TBM peptide S333E, synthetic] |
| 0.16 | SQETFEEKYRLAPTLSSTKGH [MCPH1^TBM peptide S333A, synthetic] |
